Experimental findings from the supplement of paper PMC9112550, “Optimization of the antimicrobial peptide Bac7 by deep mutational scanning” (BMC Biology, 2022) are described below.
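Further: peptides expressed intracellularly from a pBAD plasmid library in pooled LB shake-flask culture, induced with 0.3% L-arabinose, DNA abundance read by NGS, three biological replicates, DESeq2 with apeglm shrinkage.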

This data set relates to Escherichia coli TOP10. Description: shrunken log2 fold change of peptide-encoding DNA abundance (4.5 h post-induction vs induction); higher = less antimicrobial activity (less host growth inhibition). Conditions: time post-induction: 4.5 h; library: site-saturation at positions 5, 18, 19, 20.
With RRIRTRPPRLPRPRPRPVVGPRP, the “shrunken log2 fold change” value was found to be 0.626. As for RRIRERPPRLPRPRPRPHPEPRP, the “shrunken log2 fold change” value is -0.073.

Regarding RRIRKRPPRLPRPRPRPRLAPRP, the “shrunken log2 fold change” value was found to be 0.772.

Turning to RRIRWRPPRLPRPRPRPLCFPRP, the “shrunken log2 fold change” value is -0.101.

With RRIRSRPPRLPRPRPRPTEEPRP, the “shrunken log2 fold change” value came to 0.234. For RRIRHRPPRLPRPRPRPLSKPRP the value was -0.746; for RRIRSRPPRLPRPRPRPIARPRP, 0.029; for RRIRTRPPRLPRPRPRPEYKPRP, 0.134. On to RRIRDRPPRLPRPRPRPCCTPRP, for which the “shrunken log2 fold change” value stood at 0.149. RRIRQRPPRLPRPRPRPDFYPRP: the “shrunken log2 fold change” value is -0.288. With RRIRHRPPRLPRPRPRPPEVPRP, the “shrunken log2 fold change” value amounted to 0.0634. Consider RRIRIRPPRLPRPRPRPGSDPRP, for which the “shrunken log2 fold change” value is -0.209. On to RRIRLRPPRLPRPRPRPTHCPRP, for which the “shrunken log2 fold change” value is -0.0342. For RRIRVRPPRLPRPRPRPKGLPRP, the “shrunken log2 fold change” value was -0.239. For RRIRRRPPRLPRPRPRPITVPRP, the “shrunken log2 fold change” value is -0.179.

Consider RRIRARPPRLPRPRPRPWVMPRP, for which the “shrunken log2 fold change” value is -0.156. For RRIRGRPPRLPRPRPRPLRCPRP the value was 0.58; for RRIRFRPPRLPRPRPRPKNGPRP, -0.0366. Consider RRIRARPPRLPRPRPRPRDMPRP, for which the “shrunken log2 fold change” value was 1.52. For RRIRHRPPRLPRPRPRPELYPRP, the “shrunken log2 fold change” value was -0.215. On to RRIRCRPPRLPRPRPRPFWYPRP, for which the “shrunken log2 fold change” value was -0.353. RRIRHRPPRLPRPRPRPNLFPRP: the “shrunken log2 fold change” value is -0.0861. Regarding RRIRFRPPRLPRPRPRPVQEPRP, the “shrunken log2 fold change” value was found to be 0.0623.

With RRIRARPPRLPRPRPRPQKYPRP, the “shrunken log2 fold change” value was -0.363. To RRIRMRPPRLPRPRPRPVEQPRP belongs 0.0366.

As for RRIRTRPPRLPRPRPRPCCMPRP, the “shrunken log2 fold change” value is -0.197. With RRIRHRPPRLPRPRPRPTQGPRP, the “shrunken log2 fold change” value was determined as 0.318.

In the case of RRIRMRPPRLPRPRPRPAQIPRP, the “shrunken log2 fold change” value was -0.0435.

As to RRIRARPPRLPRPRPRPYNYPRP, the “shrunken log2 fold change” value worked out at 1.34. As to RRIRWRPPRLPRPRPRPRFTPRP, the “shrunken log2 fold change” value was determined as 0.307. As to RRIRRRPPRLPRPRPRPNLFPRP, the “shrunken log2 fold change” value is 0.177. Consider RRIRERPPRLPRPRPRPDACPRP, for which the “shrunken log2 fold change” value is -0.0198. To RRIRIRPPRLPRPRPRPDVFPRP belongs -0.115. For the sequence RRIRPRPPRLPRPRPRPWDQPRP, the “shrunken log2 fold change” value is -0.0786.

In the case of RRIRIRPPRLPRPRPRPFTMPRP, the “shrunken log2 fold change” value was -0.79.
